Four molecules from patent US20240139329A1 (CALIFORNIA INSTITUTE OF TECHNOLOGY, published 2024) can be followed below.

Residue numbers refer to the chain shown, from its start.

In assay [1] the target is T1, human interleukin 3 (IL3), expressed on microarray cells (human, UniProt P08700 20-152).
T1 construct: also called hIL3
T1 sequence: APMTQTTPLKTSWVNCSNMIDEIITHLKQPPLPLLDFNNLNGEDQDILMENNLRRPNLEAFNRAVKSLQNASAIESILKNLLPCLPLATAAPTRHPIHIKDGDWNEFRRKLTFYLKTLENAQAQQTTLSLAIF
As to the kind of experiment: cell microarray screen hit (title of Table 4).

The target of assay [2] is T2, Mouse SCA1 (LY6A), on cells (mouse, UniProt P05533 27-112).
T2 construct: whole, on cells; also called mouse LY6A
T2 sequence: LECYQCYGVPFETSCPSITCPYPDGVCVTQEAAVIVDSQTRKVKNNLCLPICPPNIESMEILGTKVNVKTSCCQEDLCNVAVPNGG
As to the kind of experiment: cell microarray screen hit (membrane).
Experimental: After these controls, the six-capsid pool was tested in a full screen of approximately 6400 proteins, including 6000 human plasma membrane proteins and secreted and cell surface-tethered proteins, as well as approximately 400 heterodimers. […] To assign these hits to specific capsids, follow-up deconvolution screens were performed with each individual capsid from the pool (FIG. 12E). DNA oligos for the 22 identified hits, as well as the positive control CD86, were affixed in duplicate locations to new slides. A negative control condition with no AAV analyte and a positive control condition with CTLA4-Fc (CD86 binder) were also included.

Assay [3] addresses T2, Mouse SCA1 (LY6A), on cells. As to the kind of experiment: cell microarray, individual capsids, anti-AAV9 detection.
Experimental: To enable higher-throughput screening, the six capsids were tested as a pool. Pooled testing required additional dosage optimizing, first for the individual and then for the collective background binding levels of the included capsids (Table 5).
In assay [4] the target is T3, mouse LRP6-E3E4 (C-half, AA 629-1244) tagged with Fc (mouse IgG2a) (mouse, UniProt O88572 629-1244).
T3 construct: not shown: mouse IgG2a Fc
T3 sequence: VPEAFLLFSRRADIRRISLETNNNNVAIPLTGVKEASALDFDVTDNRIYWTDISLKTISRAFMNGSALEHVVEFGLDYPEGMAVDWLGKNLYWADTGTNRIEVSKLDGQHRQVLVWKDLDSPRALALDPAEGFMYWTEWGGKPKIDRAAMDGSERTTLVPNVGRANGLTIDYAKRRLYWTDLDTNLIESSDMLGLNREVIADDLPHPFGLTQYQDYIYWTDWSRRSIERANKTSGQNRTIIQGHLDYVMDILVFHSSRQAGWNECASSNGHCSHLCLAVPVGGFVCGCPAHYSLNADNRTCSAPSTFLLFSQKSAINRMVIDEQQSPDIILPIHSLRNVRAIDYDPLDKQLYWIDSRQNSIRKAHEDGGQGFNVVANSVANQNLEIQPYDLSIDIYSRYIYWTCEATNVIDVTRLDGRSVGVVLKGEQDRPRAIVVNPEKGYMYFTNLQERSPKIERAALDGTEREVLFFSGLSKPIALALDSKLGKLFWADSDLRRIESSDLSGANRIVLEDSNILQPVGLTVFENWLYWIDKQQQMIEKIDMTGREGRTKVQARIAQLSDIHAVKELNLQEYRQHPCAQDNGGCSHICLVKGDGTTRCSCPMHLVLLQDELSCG
As to the kind of experiment: SPR, target-Fc captured on protein A chip, AAV analyte (FIG. 20B).

Assay [5] addresses T4, mouse LRP6-E1E2 (N-half, AA 20-628) tagged with Fc (mouse IgG2a) (mouse, UniProt O88572 20-628).
T4 construct: not shown: mouse IgG2a Fc
T4 sequence: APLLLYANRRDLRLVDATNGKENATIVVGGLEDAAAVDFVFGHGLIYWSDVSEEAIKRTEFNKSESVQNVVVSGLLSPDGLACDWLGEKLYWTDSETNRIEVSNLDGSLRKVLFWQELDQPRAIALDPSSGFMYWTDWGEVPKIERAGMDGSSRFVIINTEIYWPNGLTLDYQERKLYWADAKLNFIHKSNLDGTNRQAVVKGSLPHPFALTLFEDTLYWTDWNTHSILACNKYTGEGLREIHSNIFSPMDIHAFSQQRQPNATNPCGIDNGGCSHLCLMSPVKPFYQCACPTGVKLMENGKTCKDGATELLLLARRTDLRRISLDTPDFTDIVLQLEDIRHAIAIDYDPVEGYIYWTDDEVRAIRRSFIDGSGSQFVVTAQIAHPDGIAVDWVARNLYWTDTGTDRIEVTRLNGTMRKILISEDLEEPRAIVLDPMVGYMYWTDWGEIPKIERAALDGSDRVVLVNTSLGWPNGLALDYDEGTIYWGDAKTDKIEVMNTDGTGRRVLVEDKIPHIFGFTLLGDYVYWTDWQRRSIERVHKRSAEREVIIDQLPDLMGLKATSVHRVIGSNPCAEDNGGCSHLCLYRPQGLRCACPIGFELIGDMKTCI
The assay is described as above.

B1: AAV.CAP-B22 (other)
chain: MAADGYLPDWLEDNLSEGIREWWALKPGAPQPKANQQHQDNARGLVLPGYKYLGPGNGLDKGEPVNAADAAALEHDKAYDQQLKAGDNPYLKYNHADAEFQERLKEDTSFGGNLGRAVFQAKKRLLEPLGLVEEAAKTAPGKKRPVEQSPQEPDSSAGIGKSGAQPAKKRLNFGQTGDTESVPDPQPIGEPPAAPSGVGSLTMASGGGAPVADNNEGADGVGSSSGNWHCDSQWLGDRVITTSTRTWALPTYNNHLYKQISNSTSGGSSNDNAYFGYSTPWGYFDFNRFHCHFSPRDWQRLINNNWGFRPKRLNFKLFNIQVKEVTDNNGVKTIANNLTSTVQVFTDSDYQLPYVLGSAHEGCLPPFPADVFMIPQYGYLTLNDGSQAVGRSSFYCLEYFPSQMLRTGNNFQFSYEFENVPFHSSYAHSQSLDRLMNPLIDQYLYYLSRTIDGQSSKSQTLKFSVAGPSNMAVQGRNYIPGPSYRQQRVSTTVTQNNNSEFAWPGASSWALNGRNSLMNPGPAMASHKEGEDRFFPLSGSLIFGKQGTGRDNVDADKVMITNEEEIKTTNPVATESYGQVATNHQSDGTLAVPFKAQAQTGWVQNQGILPGMVWQDRDVYLQGPIWAKIPHTDGNFHPSPLMGGFGMKHPPPQILIKNTPVPADPPTAFNKDKLNSFITQYSTGQVSVEIEWELQKENSKRWNPEIQYTSNYYKSNNVEFAVNTEGVYSEPRPIGTRYLTRNL
notes: also called AAV9.CAP-B22
Turning to B1, the binding result in assay [1] and in assay [2] was “binds” throughout.

B2: AAV-MaCPNS1 (other)
chain: MAADGYLPDWLEDNLSEGIREWWALKPGAPQPKANQQHQDNARGLVLPGYKYLGPGNGLDKGEPVNAADAAALEHDKAYDQQLKAGDNPYLKYNHADAEFQERLKEDTSFGGNLGRAVFQAKKRLLEPLGLVEEAAKTAPGKKRPVEQSPQEPDSSAGIGKSGAQPAKKRLNFGQTGDTESVPDPQPIGEPPAAPSGVGSLTMASGGGAPVADNNEGADGVGSSSGNWHCDSQWLGDRVITTSTRTWALPTYNNHLYKQISNSTSGGSSNDNAYFGYSTPWGYFDFNRFHCHFSPRDWQRLINNNWGFRPKRLNFKLFNIQVKEVTDNNGVKTIANNLTSTVQVFTDSDYQLPYVLGSAHEGCLPPFPADVFMIPQYGYLTLNDGSQAVGRSSFYCLEYFPSQMLRTGNNFQFSYEFENVPFHSSYAHSQSLDRLMNPLIDQYLYYLSRTINGSGQNQQTLKFSVAGPSNMAVQGRNYIPGPSYRQQRVSTTVTQNNNSEFAWPGASSWALNGRNSLMNPGPAMASHKEGEDRFFPLSGSLIFGKQGTGRDNVDADKVMITNEEEIKTTNPVATESYGQVATNHQSAQPHEGSSRAQAQTGWVQNQGILPGMVWQDRDVYLQGPIWAKIPHTDGNFHPSPLMGGFGMKHPPPQILIKNTPVPADPPTAFNKDKLNSFITQYSTGQVSVEIEWELQKENSKRWNPEIQYTSNYYKSNNVEFAVNTEGVYSEPRPIGTRYLTRNL
For the molecule B2, the binding result in assay [3] is listed as “no binding”; in assay [1], “binds”.

B3: AAV-BI30 (other)
chain: B2 chain with P589N, H590N, E591S, G592T, S593R, S594G, R595G
For the molecule B3, the binding result is “no binding” in assay [4] and “binds” in assay [5].

B4: AAV-MaCPNS2 (other)
chain: B2 chain with H590N, E591A, G592S, S593V, S594N, R595S
notes: also called AAV-MacCPNS2
For the molecule B4, the binding result in assay [3] is listed as “no binding”; in assay [1] it was “binds”.
